Experimental data taken from paper PMC2267099, “Inhibition of Horse Liver Alcohol Dehydrogenase by Methyltin Compounds” (Bioinorganic Chemistry and Applications, 2005).

Substrate: CCO
Assay: purified protein
Type: biochemical, Equus caballus
Settings: no inhibitor, NAD+ 0.6 mM, pH 9.5 TRIS-HCl 0.05 M, room temperature

B1: alcohol dehydrogenase from horse liver (HLADH) (Equus caballus) (protein)
chain: STAGKVIKCKAAVLWEEKKPFSIEEVEVAPPKAHEVRIKMVATGICRSDDHVVSGTLVTPLPVIAGHEAAGIVESIGEGVTTVRPGDKVIPLFTPQCGKCRVCKHPEGNFCLKNDLSMPRGTMQDGTSRFTCRGKPIHHFLGTSTFSQYTVVDEISVAKIDAASPLEKVCLIGCGFSTGYGSAVKVAKVTQGSTCAVFGLGGVGLSVIMGCKAAGAARIIGVDINKDKFAKAKEVGATECVNPQDYKKPIQEVLTEMSNGGVDFSFEVIGRLDTMVTALSCCQEAYGVSVIVGVPPDSQNLSMNPMLLLSGRTWKGAIFGGFKSKDSVPKLVADFMAKKFALDPLITHVLPFEKINEGFDLLRSGESIRTILTF
notes: commercial native enzyme from horse liver (Fluka AG), full length, used as received
Km: 46.7 ± 0.8 mM
